Source: patent publication US20170204167A1

Experiments:
[1] = target: HA of H5N1 A/Viet Nam/1203/04 (influenza A virus H5N1 A/Viet Nam/1203/04); experiment: cell-based or functional assay
[2] = target: HA of H5N1 A/Viet Nam/1203/04 (influenza A virus H5N1 A/Viet Nam/1203/04); experiment: ELISA on HA
[3] = target: HA of H9 A/HK/1073/99 (influenza A virus H9N2 A/Hong Kong/1073/99); experiment: ELISA on HA
[4] = target: HA of H5N1 A/Viet Nam/1203/04 (influenza A virus H5N1 A/Viet Nam/1203/04); experiment: ELISA on recombinant or purified HA
[5] = target: HA of H8N4 A/Alberta/357/84 (influenza A virus H8N4 A/Alberta/357/84); experiment: ELISA on recombinant or purified HA
[6] = target: HA of H5N1 A/Viet Nam/1/05 (influenza A virus H5N1 A/Viet Nam/1/05); experiment: ELISA on recombinant or purified HA
[7] = target: HA of H7N3 A/Canada/444/04 (influenza A virus H7N3 A/Canada/444/04); experiment: ELISA on recombinant or purified HA
[8] = target: HA of H9 A/HK/1073/99 (influenza A virus H9N2 A/Hong Kong/1073/99); experiment: ELISA on recombinant or purified HA
[9] = target: HA of H6N5 A/shearwater/Australia/1/72 (influenza A virus H6N5 A/shearwater/Australia/1/72); experiment: ELISA on recombinant or purified HA
[10] = target: HA of H10N4 A/mink/Sweded/3900/84 (influenza A virus H10N4 A/mink/Sweded/3900/84); experiment: ELISA on recombinant or purified HA
[11] = target: H7-HA (Table 7) (influenza A virus, H7 subtype, strain not stated); experiment: ELISA on baculovirus-derived recombinant HA
[12] = target: H5-HA (Table 7) (influenza A virus, H5 subtype, strain not stated); experiment: ELISA on baculovirus-derived recombinant HA

Binder | Neutralization of HA-pseudotypes (IC90, µg/ml) [1] [µg/mL] | Binding to HA by ELISA (% of subtype specific control antibodies) [2] [%] | Binding to HA by ELISA (% of subtype specific control antibodies) [3] [%] | EC50 [4] [µg/mL] | EC50 [5] [µg/mL] | EC50 [6] [µg/mL] | EC50 [7] [µg/mL] | EC50 [8] [µg/mL] | EC50 [9] [µg/mL] | EC50 [10] [µg/mL] | EC50 [11] [µg/mL] | EC50 [12] [µg/mL]
FI28 variant 1 (antibody, V domains shown) VH: EVQLVESGGGAVQPGESLKLSCAASGFTFSNYGMHWVRQAPGKGLEWVAVISYDGSNKYYADSVKGRFTISRDNSKDTLYLQMNSLRAEDTALFYCAKERPLRLLRYFDWLSGGANDYWGQGTLVTVSS VL: DIVMTQSPDSLAVSLGERATINCKSSQSVLYSSNNKNYLAWYQQKPGQPPKLLIDWASTRESGVPDRFSGSGSGTDFTLTISNLQVEDVAVYYCQQYYRSPSFGQGTKLEIK | 0.02 | 46.3 | 87.7 | – | – | – | – | – | – | – | – | –
FI6 variant 2 (antibody, V domains shown) VH: QVQLVQSGGGVVQPGRSLRLSCVASGFTFSTYAMHWVRQAPGRGLEWVAVISYDGNYKYYADSVKGRFSISRDNSNNTLHLEMNTLRTEDTALYYCAKDSQLRSLLYFEWLSQGYFDPWGQGTLVTVTS VL: DIQMTQSPDSLAVSLGARATINCKSSQSVTFNYKNYLAWYQQKPGQPPKVLIYWASARESGVPDRFSGSGSGTDFTLTISSLQAEDVAVYYCQQHYRTPPTFGQGTKVEIK | 0.02 | 73.7 | 98.7 | 0.014 | 0.033 | 0.01 | 0.033 | 0.014 | 0.041 | 0.09 | 0.0314 | 0.0145
